Experimental data as given in US20240287172A1 (SCIRHOM, published 2024).

Legend:
hiR2-FL-R543A-T7 = target: T1, hiR2-FL-R543A-T7 (human, UniProt Q6PJF5 1-856); assay: FACS on MEF-DKO cells expressing the variant, 3 µg/ml antibody
T1 sequence: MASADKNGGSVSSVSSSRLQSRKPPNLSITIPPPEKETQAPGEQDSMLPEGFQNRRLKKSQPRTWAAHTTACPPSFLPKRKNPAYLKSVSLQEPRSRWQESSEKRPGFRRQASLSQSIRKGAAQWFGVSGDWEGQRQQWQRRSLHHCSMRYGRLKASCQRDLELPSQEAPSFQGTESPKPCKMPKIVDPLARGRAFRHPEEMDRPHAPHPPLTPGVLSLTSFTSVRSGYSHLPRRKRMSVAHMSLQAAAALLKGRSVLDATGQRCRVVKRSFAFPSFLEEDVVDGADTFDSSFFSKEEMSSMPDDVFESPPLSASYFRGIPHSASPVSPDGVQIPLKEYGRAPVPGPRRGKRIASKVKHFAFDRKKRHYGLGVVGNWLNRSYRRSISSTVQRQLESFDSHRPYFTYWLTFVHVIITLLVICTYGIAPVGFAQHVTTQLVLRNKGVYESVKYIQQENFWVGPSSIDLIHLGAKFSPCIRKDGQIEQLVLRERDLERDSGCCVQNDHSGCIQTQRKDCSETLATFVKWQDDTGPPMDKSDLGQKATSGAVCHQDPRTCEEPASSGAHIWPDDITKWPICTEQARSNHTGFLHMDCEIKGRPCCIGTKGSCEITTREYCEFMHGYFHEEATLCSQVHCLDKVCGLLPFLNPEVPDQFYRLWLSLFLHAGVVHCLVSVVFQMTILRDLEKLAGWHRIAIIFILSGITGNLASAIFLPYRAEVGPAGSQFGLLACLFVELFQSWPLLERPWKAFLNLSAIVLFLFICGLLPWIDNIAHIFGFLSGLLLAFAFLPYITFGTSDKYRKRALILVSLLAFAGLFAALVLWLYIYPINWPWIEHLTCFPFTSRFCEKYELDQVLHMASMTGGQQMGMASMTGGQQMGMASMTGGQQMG
Protocol: (§1) To pellet cells and remove supernatants, the plates were centrifuged at 1,500 rpm and 4° C. for 3 minutes. For primary staining, cells were resuspended in 100 μl per well of either FACS buffer alone (controls) or the purified antibodies 3, 5, 16, 22, 34, 42, 43, 44, 48, and 50 of the invention at 3 μg/ml in FACS buffer and incubated on ice for 1 hour. Afterwards, plates were centrifuged at 1,500 rpm and 4° C. for 3 minutes and washed twice with 200 μl per well of FACS buffer. For secondary staining, cells were spun down and resuspended in 100 μl per well of PE-conjugated goat anti-mouse IgG F(ab′)2 detection fragment (Dianova, Germany) diluted 1:100 in FACS buffer. Protected from light, the cell suspensions were incubated on ice for 1 hour. Plates were then centrifuged at 1,500 rpm and 4° C. for 3 minutes and washed three times with 200 μl per well of FACS buffer. Finally, cells were resuspended in 150 μl per well of FACS buffer and analyzed using a BD Accuri™ C6 Plus flow cytometer (Becton Dickinson, Germany).

hiR2-FL-S561A-T7 = target: T2, hiR2-FL-S561A-T7 (human, UniProt Q6PJF5 1-856); assay: as above
T2 sequence: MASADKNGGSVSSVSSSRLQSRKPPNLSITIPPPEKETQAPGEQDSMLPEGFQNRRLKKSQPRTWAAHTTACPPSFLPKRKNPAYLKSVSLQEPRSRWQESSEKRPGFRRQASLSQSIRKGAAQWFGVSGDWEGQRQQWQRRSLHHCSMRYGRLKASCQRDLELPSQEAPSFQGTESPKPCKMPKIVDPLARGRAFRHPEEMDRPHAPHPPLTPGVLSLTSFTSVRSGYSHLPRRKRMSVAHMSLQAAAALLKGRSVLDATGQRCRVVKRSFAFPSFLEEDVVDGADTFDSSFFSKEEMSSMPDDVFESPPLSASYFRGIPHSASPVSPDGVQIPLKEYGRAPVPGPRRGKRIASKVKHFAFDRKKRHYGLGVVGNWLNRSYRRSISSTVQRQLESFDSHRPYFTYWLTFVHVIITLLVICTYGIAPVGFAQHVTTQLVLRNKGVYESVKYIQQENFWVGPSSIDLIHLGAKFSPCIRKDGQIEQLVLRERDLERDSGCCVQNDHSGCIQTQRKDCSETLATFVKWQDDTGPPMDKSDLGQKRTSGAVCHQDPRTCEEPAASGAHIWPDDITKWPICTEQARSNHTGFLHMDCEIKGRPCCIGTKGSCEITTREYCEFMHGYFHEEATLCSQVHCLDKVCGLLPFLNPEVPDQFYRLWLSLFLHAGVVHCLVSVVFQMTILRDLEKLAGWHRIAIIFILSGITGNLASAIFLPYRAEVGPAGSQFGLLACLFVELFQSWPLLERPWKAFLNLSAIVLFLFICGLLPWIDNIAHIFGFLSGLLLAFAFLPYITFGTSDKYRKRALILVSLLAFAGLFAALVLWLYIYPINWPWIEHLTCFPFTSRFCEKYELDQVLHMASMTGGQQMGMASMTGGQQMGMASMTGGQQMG
Protocol: as §1

| Binder | loss of binding vs wild type (hiR2-FL-R543A-T7) [%] | loss of binding vs wild type (hiR2-FL-S561A-T7) [%] |
| --- | --- | --- |
| antibody 5 (antibody, V domains shown, mouse IgG, kappa light chain; also called clone #5; purified antibody 5) VH: QVTLKESGPGILQPSQTLSLTCSFSGFSLSTFGMGVGWIRQPSGKGLEWLAHIWWDDEKYYNSALKSRLTISKATSKNQAFLKIANVDTADTATYYCARISNYGSNYWYFNVWGTGTTVTVSS VL: QVVLTQSPALMSASPGEKVTMTCSAGSSVSCMYWYQQKPGSSPRVLIYDTSNLASGVPARFTGSGSGTSYSLTISRMEAEDAASYYCQQWNSYPLTFGAGTKLELK | ≥ 60 | ≥ 30 |
| antibody 42 (antibody, V domains shown, mouse IgG, kappa light chain; also called clone #42; purified antibody 42) VH: QVTLKESGPGILQPSQTLSLTCSLSGFSLSTFGRGVGWIRQPSGKGLEWLAHIWWDDEKYYNPALKSRLTISKDTSKNQVFLRIANVDTADTATYYCARIQNYGSNYWYFDVWGTGTTVTVSS VL: LIVLTQSPAIMSASPGEKVTMTCGATSRISYMFWYQQKPGSSPRVLIYDTSNLASGVPVRFSGSGSGTSYSLTISRVEAEDVATYYCQQWNSYPLTFGAGTKLELK | ≥ 60 | ≥ 30 |
| antibody 43 (antibody, V domains shown, mouse IgG, kappa light chain; also called clone #43; purified antibody 43) VH: QVALKESGPGILQPSQTLSLTCSFSGFSLSTFGMGVGWIRQSSGKGLEWLANIWWDDDKYYNPALKSRLTISKDASKNQAFLKIANVDTADTATYYCARIGNYGSNYWYFDVWGTGTTVTVSS VL: QIVLTQSPAIMSASPGERVTMTCSANSRISYMYWYQQKPGSSPRLLIYDTSNLASGVPVRFSGSGSGTSYSLTISRMEAEDAATYNCQQWSSYPLTFGAGTKLELK | ≥ 95 | ≥ 30 |
| antibody 44 (antibody, V domains shown, mouse IgG, kappa light chain; also called clone #44; purified antibody 44) VH: QVTLKESGPGILQPSQTLSLTCSFSGFSLSTFGMGVGWIRQPSEKGLEWLAHIWWDDDKYYNPALKSRLTISKDTSKNQIFLKITNVDTAETATYYCSRIGNYGSNYWYFDVWGTGTTVTVSS VL: QIVLTQSPAVMSASPGEKVTMTCTASSSVYYMYWYQQTPGSSPRLLIYDTSNLASGVPVRFSGSGSGTSYSLTISRMEAEDAATYYCQQWNTYPLTFGAGTKLELK | ≥ 95 | ≥ 30 |
| antibody 22 (antibody, V domains shown, mouse IgG, kappa light chain; also called clone #22; purified antibody 22) VH: QVTLKESGPGILQPSQTLSLTCSFSGFSLSTFGMGVGWIRQPSGKGLEWLAHIWWDDEKYYNSALKSRLTISKATSKNQVFLKIANVDTADTATYYCARISNYGSNYWYFNVWGTGTTVTVSS VL: QVVLTQSPALMSASPGEKVTMTCSAGSSVSYMYWYQQKPGSSPRVLIYDTSNLASGVPARFTGSGSGTSYSLTISRMEAEDAATYYCQQWNSYPLTFGAGTKLELK | ≥ 60 | ≥ 30 |
| antibody 34 (antibody, V domains shown, mouse IgG, kappa light chain; also called clone #34; purified antibody 34) VH: QVTLKESGPGILQPSQTLSLTCSFSGFSLSTFSLGVGWIRQSSGKGLEWLAHIWWDDEKYYNPALKSRLTISKDTSKNQVFLKIANVDAADTATYYCARAYYSKSYYALDYWGQGTSVTVSS VL: DIQMTQSPSSLSASLGERVSLTCRASQEISGYLSWLQQKPDGTIKRLIYAASTLDSGVPKRFSGSRSGSDYSLAISSLESEDFADYYCLQYANFPFTFGSGTKLEIK | ≥ 95 | ≥ 30 |
| antibody 3 (antibody, V domains shown, mouse IgG, kappa light chain; also called clone #3; purified antibody 3) VH: QVTLKESGPGILQPSQTLSLTCSFSGFSLTTFAMGIGWVRQPSGKGLEWLAHIWWDGEKYNNPVLKSRLTISKDTSKNQVFLRIANVDTPDTATYYCARISSIYYIIDNWGQGTSVTVSS VL: DIVLTQSPATLSVTPGHSVSLSCRASQSISNNLHWYQKKSHESPRLLIKYVSQSISGIPSRFSGSGSGTDFTLSINSVETEDFGMYFCQQSYNWPLTFGAGTKLELK | ≥ 30 | ≥ 30 |
